Here are results for one molecule from US6423315.

The target in the test is I-A^q molecule of MHC (mouse (DBA/1)). The test can be described thus: cell-based or functional assay.

As to PTGPLGPKGQTGZLGIAGFKGZQGPK [CII 245-270], the IL-2 U/ml, T-cell hybridoma 2qCII92.33, molar ratio 0:1 (no competitor; baseline in the row of CII 245-270 [s260, 261, 263]) is 160 U/ml; the IL-2 U/ml, T-cell hybridoma 2qCII92.33, molar ratio 0:1 (no competitor; baseline in the row of CII 245-270 [s266, 267, 269]) was 160 U/ml; the IL-2 U/ml, T-cell hybridoma qCII85.33, molar ratio 0:1 (no competitor; baseline in the row of CII 245-270 [s260, 261, 263]) was 640 U/ml; the IL-2 U/ml, T-cell hybridoma qCII85.33, molar ratio 0:1 (no competitor; baseline in the row of CII 245-270 [s266, 267, 269]) was 640 U/ml. For the same molecule, the IL-2 U/ml, T-cell hybridoma qCII98.10, molar ratio 0:1 (no competitor; baseline in the row of CII 245-270 [s260, 261, 263]) came out at 160 U/ml and the IL-2 U/ml, T-cell hybridoma qCII98.10, molar ratio 0:1 (no competitor; baseline in the row of CII 245-270 [s266, 267, 269]) was 160 U/ml.
